# Results taken from US20090203140.
# How the values were obtained:
# Assay in all cases: cell_activity
# [1] = test system: ZFN 12805 golden; settings: pair 04.05 (with 12804), 5 ng mRNA
# [2] = test system: ZFN 12776 golden; settings: pair 75.76 (with 12775), 7 ng mRNA, golden b1 heterozygous embryos
# [3] = test system: ZFN 13370 notail; settings: pair ntl_68 (inferred with 13368), 5 ng mRNA; 16% in pair ntl_78
# [4] = test system: ZFN 12804 golden; settings: pair 04.05 (with 12805), 5 ng mRNA; also 32% in pair 04.06
# [5] = test system: ZFN 12806 golden; settings: pair 04.06 (with 12804), 5 ng mRNA
# [6] = test system: ZFN 13368 notail; settings: pair ntl_68 (inferred 13368 with 13370), 5 ng mRNA, ntl b195 het x wildtype cross
# [7] = test system: ZFN 12775 golden; settings: pair 75.76 (with 12776), 7 ng mRNA, golden b1 heterozygous embryos
sequence,measurement,setting,value
ACCGTCTGGATGAACCACGGCAGGCCCA (double strand) [golden 12805 target],activity (% embryos with unpigmented eye clones),[1],32
ATGCACAGCAGGTTATAGACAGCAGAAC (double strand) [golden 12776 target],activity (% embryos with unpigmented eye clones),[2],23
GCATTAGGGTCGAGACCGGTGACACTGG (double strand) [no tail 13370 target],activity (% no tail-like embryos),[3],27
TTGTTGACGTGGGCTCCCCGGTGGATGT (double strand) [golden 12804 target],activity (% embryos with unpigmented eye clones),[4],32
ACCGTCTGGATGAACCACGGCAGGCCCA (double strand) [golden 12806 target],activity (% embryos with unpigmented eye clones),[5],32
TGTACTCGGTCCTGCTGGATTTTGTGGC (double strand) [no tail 13368 target],activity (% no tail-like embryos),[6],27
GTGCAGCGTGCGGCCTGCTGTCCTCTGC (double strand) [golden 12775 target],activity (% embryos with unpigmented eye clones),[7],23
